Measured values taken from patent publication US12077763B2, “RNA-based control of powdery mildew” (Greenlight Biosciences, Inc., priority 2021, dated 2024).

B1: GS3526 (nucleic acid)
sense: UAUCCCUGAUUUCUAUAGUCUGAUGAAGAAUGAUUUUUGUAGGCAAUAGACUUUCUUCUCUUCCCAGAACAGCAGCUUCUACAGCAUCCACAACAGCUUAGGAAAGAGAAGCAAGAACAACAAAAUGAGUAUCCAAAGCACAAGCAGCGUGUCAUACAAAUGAUAAUUGAGAGGACUAUUAAGCCACCGAUAACAAGUCCGAUUAUUGCUGGCCAUUUGCAAUAAAUUUGUAUCAUGCAUUUAUCCCAGUUGGUGAAUGAAGAAGUAACGUUUGAUACUUGAUUAGUUAAUUGAUCACUCAACUGAUCACUUACAAGCCUUGGCCUAAGCAAACUAAUCUCCAAAAAAUUCAUGUUUCCAAUAUUAACACCUCCGUGAUCUUCAUUAAAUAAGUAA
antisense: UUACUUAUUUAAUGAAGAUCACGGAGGUGUUAAUAUUGGAAACAUGAAUUUUUUGGAGAUUAGUUUGCUUAGGCCAAGGCUUGUAAGUGAUCAGUUGAGUGAUCAAUUAACUAAUCAAGUAUCAAACGUUACUUCUUCAUUCACCAACUGGGAUAAAUGCAUGAUACAAAUUUAUUGCAAAUGGCCAGCAAUAAUCGGACUUGUUAUCGGUGGCUUAAUAGUCCUCUCAAUUAUCAUUUGUAUGACACGCUGCUUGUGCUUUGGAUACUCAUUUUGUUGUUCUUGCUUCUCUUUCCUAAGCUGUUGUGGAUGCUGUAGAAGCUGCUGUUCUGGGAAGAGAAGAAAGUCUAUUGCCUACAAAAAUCAUUCUUCAUCAGACUAUAGAAAUCAGGGAUA
B2: GS3601 (nucleic acid)
sense: CAAUUGCUGCAGCAUGACCUUCUCUUGGAACCGGUAUAUAUCCUAUGCAGUCCAAAAGAGUCCAGGAGUUCGGUAUCGGAUCAUAACACCAAACAUCGUUAUACCAUUGAAGACCAUUUGUUCCGCCAAACAAGUAAAGCUUUUCAUUAUAUGUCACAACUGAGUGAUUUGUUCUAGCUGAUGGUAUUUGUCCUACUGGGGGUCCACCAUCCUCACUAUUUUUAAUGAGAAUUUCCCACCUGUUCGUAGGGACUUGCAAAAGAUUCAAAUCAAAAGCCACAAGGUCAUUCAUAAAAUAACCCUCUACUUGCCCCCCGAAUACGUAGAUUUUAGACCCUAGUAUAUUGAGAGAAUGACCAUAACGCCCCGCGGGCCGUGGCCCGGCAGGUAUAGCUCUGGA
antisense: UCCAGAGCUAUACCUGCCGGGCCACGGCCCGCGGGGCGUUAUGGUCAUUCUCUCAAUAUACUAGGGUCUAAAAUCUACGUAUUCGGGGGGCAAGUAGAGGGUUAUUUUAUGAAUGACCUUGUGGCUUUUGAUUUGAAUCUUUUGCAAGUCCCUACGAACAGGUGGGAAAUUCUCAUUAAAAAUAGUGAGGAUGGUGGACCCCCAGUAGGACAAAUACCAUCAGCUAGAACAAAUCACUCAGUUGUGACAUAUAAUGAAAAGCUUUACUUGUUUGGCGGAACAAAUGGUCUUCAAUGGUAUAACGAUGUUUGGUGUUAUGAUCCGAUACCGAACUCCUGGACUCUUUUGGACUGCAUAGGAUAUAUACCGGUUCCAAGAGAAGGUCAUGCUGCAGCAAUUG
B3: GS3602 (nucleic acid)
sense: CUUGGAACCGGUAUAUAUCCUAUGCAGUCCAAAAGAGUCCAGGAGUUCGGUAUCGGAUCAUAACACCAAACAUCGUUAUACCAUUGAAGACCAUUUGUUCCGCCAAACAAGUAAAGCUUUUCAUUAUAUGUCACAACUGAGUGAUUUGUUCUAGCUGAUGGUAUUUGUCCUACUGGGGGUCCACCAUCCUCACUAUUUUUAAUGAGAAUUUCCCACCUGUUCGUAGGGACUUGCAAAAGAUUCAAAUCAAAAGCCACAAGGUCAUUCAUAAAAUAACCCUCUACUUGCCCCCCGAAUACGUAGAUUUUAGACCCUAGUAUAUUGAGAGAAUGACCAUAACGCCCCGCGGG
antisense: CCCGCGGGGCGUUAUGGUCAUUCUCUCAAUAUACUAGGGUCUAAAAUCUACGUAUUCGGGGGGCAAGUAGAGGGUUAUUUUAUGAAUGACCUUGUGGCUUUUGAUUUGAAUCUUUUGCAAGUCCCUACGAACAGGUGGGAAAUUCUCAUUAAAAAUAGUGAGGAUGGUGGACCCCCAGUAGGACAAAUACCAUCAGCUAGAACAAAUCACUCAGUUGUGACAUAUAAUGAAAAGCUUUACUUGUUUGGCGGAACAAAUGGUCUUCAAUGGUAUAACGAUGUUUGGUGUUAUGAUCCGAUACCGAACUCCUGGACUCUUUUGGACUGCAUAGGAUAUAUACCGGUUCCAAG
B4: GS3603 (nucleic acid)
sense: AGUCCAAAAGAGUCCAGGAGUUCGGUAUCGGAUCAUAACACCAAACAUCGUUAUACCAUUGAAGACCAUUUGUUCCGCCAAACAAGUAAAGCUUUUCAUUAUAUGUCACAACUGAGUGAUUUGUUCUAGCUGAUGGUAUUUGUCCUACUGGGGGUCCACCAUCCUCACUAUUUUUAAUGAGAAUUUCCCACCUGUUCGUAGGGACUUGCAAAAGAUUCAAAUCAAAAGCCACAAGGUCAUUCAUAAAAUAACCCUCUACUUGCCCCCCGAAUACGUAGAUUUUAGACCCUAGUAUAUUGA
antisense: UCAAUAUACUAGGGUCUAAAAUCUACGUAUUCGGGGGGCAAGUAGAGGGUUAUUUUAUGAAUGACCUUGUGGCUUUUGAUUUGAAUCUUUUGCAAGUCCCUACGAACAGGUGGGAAAUUCUCAUUAAAAAUAGUGAGGAUGGUGGACCCCCAGUAGGACAAAUACCAUCAGCUAGAACAAAUCACUCAGUUGUGACAUAUAAUGAAAAGCUUUACUUGUUUGGCGGAACAAAUGGUCUUCAAUGGUAUAACGAUGUUUGGUGUUAUGAUCCGAUACCGAACUCCUGGACUCUUUUGGACU
B5: GS3606 (nucleic acid)
sense: UAAGGUUGUGUCGGACAACACGAUUCAUACGAGCACUCCCGUCAUCUAAAUCAUCAUCUGCGAGUACAAUUAAAACAGUAUCCUUUCGCUUCUUCCCCUUAACUAGGACAGUAUCUCCACGAAAAAGCUGCAAAGUUUCCAUGGUAUUAUUUGACAGUGCAAUAACAGAGUUAUCAUCGUUGAUGGCAUCUGUUACAAUUAAGGAAUUUGGCUUUUUCUUCUUUUUUAAAAUAGCAGUCGCAGUAGCAUCAAUCGUCUUUUGUUCAGCGCCAGAGGCAUCCUCAAGUUUAACUGUUUUUU
antisense: AAAAAACAGUUAAACUUGAGGAUGCCUCUGGCGCUGAACAAAAGACGAUUGAUGCUACUGCGACUGCUAUUUUAAAAAAGAAGAAAAAGCCAAAUUCCUUAAUUGUAACAGAUGCCAUCAACGAUGAUAACUCUGUUAUUGCACUGUCAAAUAAUACCAUGGAAACUUUGCAGCUUUUUCGUGGAGAUACUGUCCUAGUUAAGGGGAAGAAGCGAAAGGAUACUGUUUUAAUUGUACUCGCAGAUGAUGAUUUAGAUGACGGGAGUGCUCGUAUGAAUCGUGUUGUCCGACACAACCUUA
B6: GS3609 (nucleic acid)
sense: CUGUCAAUAUUACAGCUUGAUAUGAAUCAAACUGGGAGAGAUCAGAAACUAAGCUUGUGGAGCUGUGAAUCUUAACAGGGGUGUAAGCAUUUAGUUCCGAAACUCGUUGAGCUGAGACAAUAUCUCUAGGUUUUCCUAUAUCUUCUGGGUUAAGAAAGAAUUGAGAUGAUAGGUCAGCGAUAGUUGCGGGAGCGGGAUCGUAUAAUGUUAGACUUUUAACUCCAGCCAGAGCUAUAUUCUUAGCUAUUUCGAUACCAAGACCUUUCAAGCCAAUAAUAAGAAUAUUCGAUGCACUCAUUCGUUUCAUAGCCUCGUGUCCAAGAACGUAGAGUUGCCUACUGUAUAAAGAC
antisense: GUCUUUAUACAGUAGGCAACUCUACGUUCUUGGACACGAGGCUAUGAAACGAAUGAGUGCAUCGAAUAUUCUUAUUAUUGGCUUGAAAGGUCUUGGUAUCGAAAUAGCUAAGAAUAUAGCUCUGGCUGGAGUUAAAAGUCUAACAUUAUACGAUCCCGCUCCCGCAACUAUCGCUGACCUAUCAUCUCAAUUCUUUCUUAACCCAGAAGAUAUAGGAAAACCUAGAGAUAUUGUCUCAGCUCAACGAGUUUCGGAACUAAAUGCUUACACCCCUGUUAAGAUUCACAGCUCCACAAGCUUAGUUUCUGAUCUCUCCCAGUUUGAUUCAUAUCAAGCUGUAAUAUUGACAG

Test system: E. necator
Assay: Leaf disc assay, dry inoculum (settling tower), decrease in disease severity / hyphal growth (Example 2)
Details: decrease in disease severity (hyphal growth) relative to untreated control, value ± SE; for % decrease =/− SE TP1: time point 1 (untreated control hyphal growth ≥50%); for % decrease =/− SE TP2: time point 2

Molecule	% decrease =/− SE TP1 [%]	% decrease =/− SE TP2 [%]
B1	22 ± 10	11 ± 10
B2	–	2 ± 3
B3	5 ± 6	7 ± 8
B4	–	7 ± 5
B5	3 ± 6	9 ± 7
B6	13 ± 8	9 ± 6
